According to patent US20100028995A1, “Tetranectin Trimerizing Polypeptides” (Anaphore, Inc., priority 2004, published 2010):

Columns and labels:
[1] = Pharmacokinetic analysis of trimeric IL1Ra proteins in male Lewis rats after i.v. injection (plasma ELISA); type: in vivo; conditions: for AUC / AUC protein/AUC KINERET ® / Half life / Half life protein/Half life KINERET ® / relative increase in AUC compared to KINERET: rat, in vivo, iv, 100 mg/kg; for half life after i.v. injection: single i.v. dose 100 mg/kg
Description: The pharmacokinetic profile of these three constructs polypeptides were analysed in Lewis rats after intravenous (i.v.) injections. The profiles obtained were compared to the pharmacokinetic profile of KINERET® in the same experiment. The pharmacokinetic study was conducted using four male Lewis rats per group, and the constructs that were used were FL IL-1Ra, I10 IL-1Ra, V17 IL-1Ra and KINERET®, Single i.v. doses of 100 mg/kg were given to the animals. The test compound was dissolved in vehicle (4.4 mM NaCitrate, pH 6.5, 93.8 mM NaCl, 0.33 mM EDTA, 0.7 g TWEEN®-80) and administered through the tail vein (vena sacralis media) or the hind paw vein (vena saphena).
Blood was then collected from four animals per time-point at baseline (zero hours) and 0.5, 1, 2, 4, 8, 12, 24, 48, 72 h post dosing. Blood samples of approximately 100 μl were collected from the tip of the tails in Microtainers™. Plasma was collected and transferred into polypropylene tubes. Plasma samples were then stored at <−70° C. until measurements were performed. Animals were then sacrificed by CO2 inhalation and the carcasses were discarded without pathological examination. The IL-1Ra compound levels and KINERET® levels in plasma were then determined by ELISA.
The average body weight of each rat was 250 grams. Assuming that the rat average blood volume was 16.5 mL a theoretical maximum initial concentration of the compounds of 1,500,000 ng/mL was calculated after i.v. injection. This starting level was used as starting value for the analysis. No observations of side effects or changes in animal well being were observed.
Following blood sampling at the above indicated time points, an ELISA assay was used to measure the injected protein in the blood samples. Based on these ELISA results, area under the curve (AUC) was used as a measure of drug exposure and the plasma half life were calculated using standard software.

[2] = test system: type II collagen arthritis; type: in vivo, Female Lewis rats
Description: Female Lewis rats with 4-day established type II collagen arthritis were treated subcutaneously (SC), daily (QD) on arthritis days 1-3 with Vehicle (10 mM phosphate buffer pH 7.4), or equimolar amounts of IL-1ra administering either monomeric IL-1ra (100 mg/kg KINERET®), or trimerized IL1ra (120 mg/kg Met-I10-TripT-IL1ra, or 120 mg/kg GG-V17-TripT-IL1ra). In order to have only one set of controls, all rats in the QD groups were dosed with the respective vehicle (10 mM phosphate buffer pH 7.4, or sodium citrate buffer pH 6.5 for KINERET®) at the 2nd and 3rd dosings to keep manipulations constant. Animals were terminated on arthritis day 4. Efficacy evaluation was based on ankle caliper measurements, expressed as area under the curve (AUC), terminal hind paw weights and body weights (Bendele et al 2000, Arthritis+Rheumatism 43:2648-2659). All animals survived to study termination. […] No vocalization occurred with any other injections.
Animals (8/group for arthritis, 4/group for normal), housed 4/cage, were anesthetized with Isoflurane and received subcutaneous/intradermal (SC/ID) injections with 300 μl of Freund's Incomplete Adjuvant (Difco, Detroit, Mich.) containing 2 mg/ml bovine type II collagen (Elastin Products, Owensville, Mo.) at the base of the tail and 2 sites on the back on days 0 and 6. Dosing by subcutaneous route (QD at 24 hour intervals) was initiated on arthritis day 1 and continued through day 3.
Rats were weighed on days 0-4 of arthritis, and caliper measurements of ankles were taken every day beginning on day 0 of arthritis (study day 9). After final body weight measurement, animals were euthanized, and hind paws were transected at the level of the medial and lateral malleolus and weighed (paired).

[3] = test system: STZ-induced diabetes; assay: Streptozocin (STZ)-induced diabetes model; type: in vivo, C57BL/6J male mice; conditions: for reduction of blood glucose levels: daily i.p. dosing at both 100 and 30 mg/kg, FIG. 12
Description: STZ (Sigma Aldrich) was administered once daily for five successive days at 50 mg/kg i.p. to fasted C57BL/6J male mice. The mice gradually developed higher levels of blood glucose from Day 1 to Day 4. The levels rose from […] during the STZ induction period. Five days (Day 4) after the last STZ dosing, the mice were randomly distributed into 10 treatment groups each containing 10 mice in good condition. Treatment started on this day, before onset of diabetes and continued beyond the onset.
The study period was 28 days and the mice were weighed once weekly during the treatment period. Blood glucose levels were measured every other day during the study period in order to monitor development of diabetes. A droplet of whole blood was collected by tail vein bleeding and placed on an Ascensia ELITE® blood glucose test strip and analyzed with an Ascensia ELITE® blood glucose meter (Bayer). The values were recorded, and x-fold increase in any given group compared to levels at treatment initiation was calculated. Clinical symptoms were observed daily or as appropriate in groups where adverse symptoms occurred.

[4] = in vivo; cited from earlier work
[5] = test system: IL-1 induction of IL-8 in U937 cells; assay: Inhibition of IL-1 induction of IL-8 in U937 cells; type: cell-based; conditions: based on several in vitro efficacy assays as well as Biacore assays
Description: GG-TripV-IL-1ra (Trip V-IL1Ra), GG-TripK-IL-1ra (Trip K-IL1Ra), GG-TripT-IL-1ra (Trip T-IL1Ra) and CII-H6-GrB-GG-TripT-IL-1ra (Trip Q-IL1Ra) were further analysed for their ability to inhibit IL-1 induction of IL-8 in U937 cells.
Due to buffer effects in the assay, at the highest protein concentration used (100 μg/mL) IL-8 production increases instead of further decreasing. Based on several in vitro efficacy assays as well as Biacore assays, it was determined that TripT IL1Ra was the best compound based on blocking and binding efficacy as well as production yields.
Three of the trimeric IL1Ra polypeptides described in the previous examples were chosen for pharmacokinetic analysis. The differences in the constructs were in the N-terminus of the trimerization domain: full length (FL), first nine amino acids truncated (I10) and the first 16 amino acids truncated (V17). The 10 construct represents a naturally occurring deletion variant of the trimerization domain and lacks the O-glycosylation site at Thr 4. The V17 derivative represents a deletion of the first exon encoding the trimerization domain and lacks a characterized heparin binding site. This site is also partially removed in the I10 construct.

[6] = SC QD days 1-3, 100 mg/kg KINERET, 120 mg/kg trimerized IL1ra, vs vehicle treated disease controls

KINERET®: monomeric IL-1ra [reference compound]
AUC [1]: 428.414 µg·h/mL
AUC protein/AUC KINERET ® [1]: 1
Half life [1]: 1.2 min
Half life protein/Half life KINERET ® [1]: 1
half life after i.v. injection [1]: about 1.2 minutes
Change in body weight increased toward normal [2, 6]: 54%
Reduction of ankle diameter AUC [2, 6]: 34%
Reduction of final paw weight [2, 6]: 61%
vocalization during the injection process (subcutaneous irritation) ([2]; rat, in vivo, sc): vocalized during the injection process
reduction of blood glucose levels [3]: marked reduction
half life in humans [4]: 240 to 360 min

V17 IL1Ra: trimeric IL1Ra polypeptide, first 16 amino acids of the trimerization domain truncated (V17), TripT fusion (SEQ ID NO: 32)
AUC [1]: 2177.781 µg·h/mL
AUC protein/AUC KINERET ® [1]: 5.08
Half life [1]: 69 min
Half life protein/Half life KINERET ® [1]: 58
relative increase in AUC compared to KINERET [1]: five-fold
half life after i.v. injection [1]: about 69 minutes

FL IL1Ra: trimeric IL1Ra polypeptide with full length (FL) trimerization domain, TripT fusion to IL-1Ra (SEQ ID NO: 24)
blocking and binding efficacy [5]: best compound
AUC [1]: 809.292 µg·h/mL
AUC protein/AUC KINERET ® [1]: 1.89
Half life [1]: 20 min
Half life protein/Half life KINERET ® [1]: 17
relative increase in AUC compared to KINERET [1]: two-fold

I10 IL1Ra: trimeric IL1Ra polypeptide, first nine amino acids of the trimerization domain truncated (I10), TripT fusion (SEQ ID NO: 28)
AUC [1]: 1637.866 µg·h/mL
AUC protein/AUC KINERET ® [1]: 3.82
Half life [1]: 54 min
Half life protein/Half life KINERET ® [1]: 45
reduction of blood glucose levels [3]: marked reduction
blood glucose efficacy relative to daily dosing of 100 mg/kg KINERET ([3]; twice weekly i.p. dosing of 100 mg/kg): equally effective
